Measured values published in US20260209386A1 (MYTHIC THERAPEUTICS, published 2026).
Numbering of substitutions follows the chain as printed.

T1: Human PTK7 Protein, His Tag, Acro Biosystems (human, UniProt Q13308 31-704)
T1 construct: Bought protein; also called CCK4; not shown: His tag
T1 sequence: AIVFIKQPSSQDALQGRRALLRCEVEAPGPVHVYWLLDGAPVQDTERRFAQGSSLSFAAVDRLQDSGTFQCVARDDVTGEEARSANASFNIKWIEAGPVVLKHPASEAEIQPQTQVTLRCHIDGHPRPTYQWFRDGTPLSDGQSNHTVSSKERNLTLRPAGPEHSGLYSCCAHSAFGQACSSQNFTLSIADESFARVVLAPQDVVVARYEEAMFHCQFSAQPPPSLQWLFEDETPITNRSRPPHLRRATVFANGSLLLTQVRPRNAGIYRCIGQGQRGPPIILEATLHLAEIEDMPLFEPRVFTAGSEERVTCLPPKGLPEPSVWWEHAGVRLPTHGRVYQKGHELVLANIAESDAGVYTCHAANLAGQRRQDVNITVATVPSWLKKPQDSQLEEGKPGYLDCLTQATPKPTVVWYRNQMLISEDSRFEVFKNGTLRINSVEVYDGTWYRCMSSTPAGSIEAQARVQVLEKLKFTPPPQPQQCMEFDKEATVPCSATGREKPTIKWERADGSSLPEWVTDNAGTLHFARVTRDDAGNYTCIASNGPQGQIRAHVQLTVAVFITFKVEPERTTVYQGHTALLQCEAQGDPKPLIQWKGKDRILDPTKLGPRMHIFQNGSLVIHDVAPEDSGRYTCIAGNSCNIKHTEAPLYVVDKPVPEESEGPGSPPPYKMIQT

T2: Human PTK7 Protein, His Tag (Acro Biosystems) (human, UniProt Q13308 31-704)
T2 construct: Bought recombinant protein; also called CCK4; tyrosine-protein kinase-like 7; not shown: His tag
T2 sequence: T1 sequence

B1: MYT11209 (antibody, V domains shown)
VH: EVQLVESGGGLVQPGGSLRLSCTASGIDLSSYVMGWVRQAPGKGLEWVGYIYGGGGTYYATWARGRFTISRDTSKNTVYLQMNSLRAEDTAVYFCARAHADFYFNLWGQGTLVTVSS
VL: EIVMTQSPSTLSASVGDRVIITCQASQSISSYLAWYQQKPGKAPKLLIYDISDLASGVPSRFSGSGSGAEFTLTISSLQPDDFATYYCQSYYWISNSGAAFGQGTKLTVL
notes: HC variant of MYT9460, sub at HCV pos 99 (H3 04)
B2: MYT11217 (antibody, V domains shown)
VH: B1 VH with F94Y, H99A
VL: B1 VL
B3: MYT11227 (antibody, V domains shown)
VH: B1 VH with H99A
VL: B1 VL with S31H
notes: LC variant of MYT9460, sub at LCV pos 31 (L1 08)
B4: MYT11228 (antibody, V domains shown)
VH: B1 VH with H99A
VL: B1 VL with Y32H
notes: LC variant of MYT9460, sub at LCV pos 32 (L1 09)
B5: MYT11215 (antibody, V domains shown)
VH: B1 VH with H99A, N105H
VL: B1 VL
B6: MYT11226 (antibody, V domains shown)
VH: B1 VH with H99A
VL: B1 VL with S30H
notes: LC variant of MYT9460, sub at LCV pos 30 (L1 07)
B7: MYT11234 (antibody, V domains shown)
VH: B1 VH with H99A
VL: B1 VL with D53H
notes: LC variant of MYT9460, sub at LCV pos 53 (L2 04)
B8: MYT11241 (antibody, V domains shown)
VH: B1 VH with H99A
VL: B1 VL with Y92H
notes: LC variant of MYT9460, sub at LCV pos 92 (L3 04)
B9: MYT11231 (antibody, V domains shown)
VH: B1 VH with H99A
VL: B1 VL with D50H
notes: LC variant of MYT9460, sub at LCV pos 50 (L2 01)
B10: MYT11235 (antibody, V domains shown)
VH: B1 VH with H99A
VL: B1 VL with L54H
notes: LC variant of MYT9460, sub at LCV pos 54 (L2 05)
B11: MYT11214 (antibody, V domains shown)
VH: B1 VH with H99A, F104H
VL: B1 VL
notes: HC variant of MYT9460, sub at HCV pos 104 (H3 09)
B12: MYT11223 (antibody, V domains shown)
VH: B1 VH with H99A
VL: B1 VL with Q27H
notes: LC variant of MYT9460, sub at LCV pos 27 (L1 04)
B13: MYT11251 (antibody, V domains shown)
VH: B1 VH with H99A
VL: B1 VL with D50A
notes: LC variant of MYT9460, Ala sub at LCV pos 50 (L2 01)
B14: MYT11252 (antibody, V domains shown)
VH: B1 VH with H99A
VL: B1 VL with D53A
notes: LC variant of MYT9460, Ala sub at LCV pos 53 (L2 04)
B15: MYT11216 (antibody, V domains shown)
VH: B1 VH with H99A, L106H
VL: B1 VL
B16: MYT11220 (antibody, V domains shown)
VH: B1 VH with H99A
VL: B1 VL with Q24H
notes: LC variant of MYT9460, sub at LCV pos 24 (L1 01)
B17: MYT11242 (antibody, V domains shown)
VH: B1 VH with H99A
VL: B1 VL with W93H
notes: LC variant of MYT9460, sub at LCV pos 93 (L3 05)
B18: MYT11219 (antibody, V domains shown)
VH: B1 VH with H99A, D101A
VL: B1 VL
notes: HC variant of MYT9460, printed as H3 05 with HCV pos 101, new residue not marked
B19: MYT11237 (antibody, V domains shown)
VH: B1 VH with H99A
VL: B1 VL with S56H
notes: LC variant of MYT9460, sub at LCV pos 56 (L2 07)
B20: MYT11239 (antibody, V domains shown)
VH: B1 VH with H99A
VL: B1 VL with S90H
notes: LC variant of MYT9460, sub at LCV pos 90 (L3 02)
B21: MYT11233 (antibody, V domains shown)
VH: B1 VH with H99A
VL: B1 VL with S52H
notes: LC variant of MYT9460, sub at LCV pos 52 (L2 03)
B22: MYT11218 (antibody, V domains shown)
VH: B1 VH with D28A, H99A
VL: B1 VL
notes: HC variant of MYT9460, sub at HCV pos 28 (H1 03), second variant at this position, new residue not marked
B23: MYT11341 (antibody, V domains shown)
VH: EVQLVESGGGLVQPGGSLRLSCTASGIHLSNYAVIWVRQAPGKGLEWVGIIYTYDTTYYANWAKGRFTISRDTSKNTVYLQMNSLRAEDTAVYFCARSFSDISDLIKLWGQGTLVTVSS
VL: EIVMTQSPSTLSASVGDRVIITCQASQSLYNNKDLAWYQQKPGKAPKLLIYEASKLASGVPSRFSGSGSGAEFTLTISSLQPDDFATYYCLGEFSCGSGDCLAFGQGTKLTVL
notes: MYT9797 HC variant; captured via anti-human Fc
B24: MYT11348 (antibody, V domains shown)
VH: B23 VH with H28D, I35H
VL: B23 VL
notes: as for B23
B25: MYT11339 (antibody, V domains shown)
VH: B23 VH with G26H, H28D
VL: B23 VL
notes: as for B23
B26: MYT11345 (antibody, V domains shown)
VH: B23 VH with H28D, Y32H
VL: B23 VL
notes: as for B23
B27: MYT11343 (antibody, V domains shown)
VH: B23 VH with H28D, S30H
VL: B23 VL
notes: as for B23
B28: MYT11350 (antibody, V domains shown)
VH: B23 VH with H28D, I51H
VL: B23 VL
notes: as for B23
B29: MYT11347 (antibody, V domains shown)
VH: B23 VH with H28D, V34H
VL: B23 VL
notes: as for B23
B30: MYT11342 (antibody, V domains shown)
VH: B23 VH with H28D, L29H
VL: B23 VL
notes: as for B23
B31: MYT11344 (antibody, V domains shown)
VH: B23 VH with H28D, N31H
VL: B23 VL
notes: as for B23
B32: MYT11340 (antibody, V domains shown)
VH: B23 VH with I27H, H28D
VL: B23 VL
notes: as for B23

What follows are binders tested against T1, Human PTK7 Protein, His Tag, Acro … (assay: BLI (Octet), antibody on anti-human Fc sensor, 50 nM PTK7, dissociation at pH 7.4 or 5.4; 2 = substantially similar binding relative to parent).

binding result | Binder
binds | B1
binds | B2
binds | B3
binds | B4
binds | B5
binds | B6
binds | B7
binds | B8
binds | B9
binds | B10
binds | B11
binds | B12
binds | B13
binds | B14
binds | B15
binds | B16
binds | B17
binds | B18
binds | B19
binds | B20
binds | B21
binds | B22

The binders below were run against T2, Human PTK7 Protein, His Tag (Acro …) (assay: BLI, antibody on anti-human Fc sensor, 50 nM PTK7 at pH 7.4, dissociation at pH 7.4 or 5.4; 2 = substantially similar binding relative to parent).

binding result | Binder
binds | B23
binds | B24
binds | B25
binds | B26
binds | B27
binds | B28
binds | B29
binds | B30
binds | B31
binds | B32
